Measurements: EP4613288A1

Key:
[1] = target: human activated protein C (human) (UniProt P04070); test: cell-based or functional assay
[2] = target: human activated protein C (human) (UniProt P04070)

Mean Value of the Clotting Time (s), Protac-induced APTT, FIX-deficient plasma, antibody 0.5 µg/ml [1] [s] | Mean Value of the Clotting Time (s), Protac-induced APTT, FIX-deficient plasma, antibody 1 µg/ml [1] [s] | Mean Value of the Clotting Time (s), Protac-induced APTT, FIX-deficient plasma, antibody 5 µg/ml [1] [s] | Mean Value of the Clotting Time (s), Protac-induced APTT, FVIII-deficient plasma, antibody 0.5 µg/ml [1] [s] | Mean Value of the Clotting Time (s), Protac-induced APTT, FVIII-deficient plasma, antibody 1 µg/ml [1] [s] | Mean Value of the Clotting Time (s), Protac-induced APTT, FVIII-deficient plasma, antibody 5 µg/ml [1] [s] | minimal dose inhibiting aPC anticoagulant activity, Protac-induced APTT, human plasma deficient in various coagulation factors [1] [µg/mL] | fold increase in affinity compared to the humanized antibody without mutations in the CDR regions [2] [fold] | Binder
584 | 567 | 404 | 600 | 629 | 389 | > 100 | – | murine antibody HAPC1573 (antibody, from another filing, V domains shown) VH: EVKLEESGGGLVQPGGSMKLSCVASGFTFSNYYLNWVRQSPEKGLEWVADIRLKSNNYEKHYAESVKGRFTISRDDSKSSVYLQMNNLRAEDTGIYYCIREGDYFDYWGQGTTLTVSS VL: NIVLTQSPASLAVSLGQRATISCRASESVDSFGATFMHWYQQKPGQPPKLLIYLASNLESGVPARFSGSGSRTDFTLTIDPVEADDAATYYCQQNNEDPYTFGGGTKLEIKR
181 | 198 | 180 | 182 | 187 | 162 | < 1 | 100 | anti-aPC monoclonal antibody HAPC-14-6 (antibody, V domains shown) VH: EVQLVESGGGLVQPGGSLRLSCAASGFTFSFYYLNWVRQAPGKGLEWVGDIRLKKNNYEKHYAESVKGRFTISRDDSKSITYLQMNSLRAEDTAVYYCAREGDYFDYWGQGTTVTVSS VL: DIQLTQSPSSLSASVGDRVTITCRASESVDSFGATFMHWYQQKPGKAPKLLIYLASRLGSGVPSRFSGSGSGTDFTLTISSLQPEDFATYYCQQNNEDPYTFGQGTKLEIK
